Assays:
Test in all cases: cell_activity
[1] = test system: TALEN ALS2_T02 right monomer (synthetic construct)
[2] = test system: TALEN ALS2_T01 left monomer (synthetic construct)
[3] = test system: TALEN ALS1_T02 right monomer (synthetic construct)
[4] = test system: TALEN ALS2_T01 right monomer (synthetic construct)
[5] = test system: TALEN ALS2_T02 left monomer (synthetic construct)
[6] = test system: TALEN ALS1_T02 left monomer (synthetic construct)
[7] = test system: TALEN ALS1_T01 left monomer (synthetic construct); settings: yeast beta-galactosidase reporter, pair with P2, 37 C (0.83 at 30 C)
[8] = test system: TALEN ALS1_T01 right monomer (synthetic construct); settings: yeast beta-galactosidase reporter, pair with P1, 37 C (0.83 at 30 C)

## CTGTCTCCTATTTCCTA (double strand) [ALS2_T02 right half-site (top strand)]
[1]; endogenous site, N. benthamiana protoplasts, pair with P7, control 0.10%
  activity: 66.9 % NHEJ
[1]; yeast beta-galactosidase reporter, pair with P7, 37 C (0.9 at 30 C)
  activity (relative to I-SceI): 1

## TAGCTTGTTCCACATTT (double strand) [ALS2_T01 left half-site]
[2]; endogenous site, N. benthamiana protoplasts, pair with P6, control 0.25%
  activity: 74 % NHEJ
[2]; yeast beta-galactosidase reporter, pair with P6, 37 C (0.9 at 30 C)
  activity (relative to I-SceI): 1

## TATAAGTTGATTCTTAA (double strand) [ALS1_T02 right half-site (top strand)]
[3]; endogenous site, N. benthamiana protoplasts, pair with P3, control 0.55%
  activity: 4.9 % NHEJ
[3]; yeast beta-galactosidase reporter, pair with P3, 37 C (0.90 at 30 C)
  activity (relative to I-SceI): 0.95

## TGTCATGCTGGGTCAGA (double strand) [ALS2_T01 right half-site (top strand)]
[4]; endogenous site, N. benthamiana protoplasts, pair with P5, control 0.25%
  activity: 74 % NHEJ
[4]; yeast beta-galactosidase reporter, pair with P5, 37 C (0.9 at 30 C)
  activity (relative to I-SceI): 1

## TTCTCTCGAGTCCTAGG (double strand) [ALS2_T02 left half-site]
[5]; endogenous site, N. benthamiana protoplasts, pair with P8, control 0.10%
  activity: 66.9 % NHEJ
[5]; yeast beta-galactosidase reporter, pair with P8, 37 C (0.9 at 30 C)
  activity (relative to I-SceI): 1

## TTGGACTTGTATGGGTT (double strand) [ALS1_T02 left half-site]
[6]; endogenous site, N. benthamiana protoplasts, pair with P4, control 0.55%
  activity: 4.9 % NHEJ
[6]; yeast beta-galactosidase reporter, pair with P4, 37 C (0.90 at 30 C)
  activity (relative to I-SceI): 0.95

## TTTAGTGCGATAAAGTT (double strand) [ALS1_T01 left half-site]
[7]
  activity (relative to I-SceI): 0.93

## TTTTATTTCGTAAGCTA (double strand) [ALS1_T01 right half-site (top strand)]
[8]
  activity (relative to I-SceI): 0.93

— US20150291967
